We go through one molecule from patent US20190381184A1 (UNIVERSITY OF NORTH CAROLINA AT CHAPEL HILL, published 2019).

For experiment [1], the target named is PD-L1. As to the kind of experiment: Octet binding kinetics. (In general: Biolayer interferometry detects binding as a change in optical thickness at a sensor tip.)
The target of experiment [2] is PD-L1. The experiment is described as follows: Octet (BLI); compared with the endogenous PD-1/PD-L1 interaction.
The target in experiment [3] is PD-L1. The experiment is described as follows: Octet (BLI) binding kinetics of the trivalent PD-L1 trap with PD-L1.

PD-L1, sequence (chain, as listed by the source): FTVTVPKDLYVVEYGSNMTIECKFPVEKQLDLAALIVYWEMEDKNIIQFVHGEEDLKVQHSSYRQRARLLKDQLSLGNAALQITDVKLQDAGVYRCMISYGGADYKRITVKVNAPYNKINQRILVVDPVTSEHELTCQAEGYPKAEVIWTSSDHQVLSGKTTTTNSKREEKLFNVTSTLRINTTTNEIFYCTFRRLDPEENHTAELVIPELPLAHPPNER

B1: trivalent PD-L1 trap (PD-1 extracellular domain - flexible linker - CMP-1 trimerization domain fusion, self-assembled trimer) (other)
chain: GSGPPTFSPALLVVTEGDNATFTCSFSNTSESFVLNWYRMSPSNQTDKLAAFPEDRSQPGQDSRFRVTQLPNGRDFHMSVVRARRNDSGTYLCGAISLAPKAQIKESLRAELRVTERRAEGPQPQPKPQPKPEPEPQPQGGSEEDPCACESILKFEAKVEGLLQALTRKLEAVSGRLAVLENRIIAAAGAPVPYPDPLEPRGGSHHHHHH
notes: also called trimeric trap; trivalent protein
For orientation: Kd means the concentration at which binding is half-saturated. High values mean lower affinity, low ones higher affinity. With B1, the dissociation constant Kd was approximately 0.0162 nM in experiment [1] and approximately 0.016 nM in experiment [3]. The “fold higher than between endogenous PD-1 and PD-L1” value in experiment [2] worked out at 10000 fold.
